Entries after “also recorded” stand apart in the source; their conditions may differ.
What was measured:
[1] = target: T1, ER-α36 protein in human tumor tissues (Homo sapiens, UniProt P03372); test: Immunohistochemistry (IHC) of human tissue samples; details: paraffin tissue of breast cancer patients
T1 construct: from tissue; host or cells: paraffin sections of breast cancer patients' tissue
T1 sequence (P03372 1-310 isoform P03372-4): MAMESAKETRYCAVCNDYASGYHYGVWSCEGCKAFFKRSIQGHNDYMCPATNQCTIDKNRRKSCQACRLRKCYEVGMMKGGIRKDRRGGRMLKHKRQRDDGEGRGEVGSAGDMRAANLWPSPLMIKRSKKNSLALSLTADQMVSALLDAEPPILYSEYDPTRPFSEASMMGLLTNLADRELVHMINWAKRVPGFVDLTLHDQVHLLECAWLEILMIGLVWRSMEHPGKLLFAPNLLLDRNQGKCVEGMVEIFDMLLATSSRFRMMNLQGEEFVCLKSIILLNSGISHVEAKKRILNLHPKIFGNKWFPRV
Experimental: Immunohistochemistry (IHC) assay was used to evaluate the ability of utilizing a specific antibody like SNGmB1 to better detect the presence of ER-α36 in human tissue samples. 4 μm thick paraffin tissue blocks of breast cancer patients were de-paraffinized by immersing in the xylene for twenty minutes twice, followed by rehydrating sequentially in 99%, 90%, 85%, 75%, 50% ethanol for 5 minutes each. The tissue sections were then washed three times with PBS. Antigen retrieval was then performed by heating in 95° C. citrate (pH 6.0) buffer for 15 minutes in microwave. Once cooled to room temperature, the sections were then washed with PBS three times, and incubated with 3% hydrogen peroxide for 20 minutes at room temperature, followed by washing with PBS. […] Upon washing with PBS five times, pre-diluted secondary antibody (ZSGB-Bio, Cat# PV-6000) was added and incubated for 20 minutes at room temperature. The sections were then washed with PBS and incubated with DAB solution for 2-5 minutes, followed by rinsing in distilled water for 5-10 minutes. The sections were then counter-stained in hematoxylin (ZSGB-BIO, Cat# ZLI-9609), followed by rinsing sequentially in 50%, 75%, 85%, 90% and 99% A ethanol to dehydrate. The sections were then cleared in xylene and sealed with neutral balsam before evaluated with microscope.

ER-α36 = target: T2, ER-α36 (Homo sapiens, UniProt P03372, I452L); test: ELISA binding specificity of SNGmB1; details: plate coated at 1 μg/ml, antibody 0.004-10 μg/ml
T2 construct: made in house; host or cells: E. coli BL21 (DE3)
T2 sequence (P03372 166-310 isoform P03372-4 I279L): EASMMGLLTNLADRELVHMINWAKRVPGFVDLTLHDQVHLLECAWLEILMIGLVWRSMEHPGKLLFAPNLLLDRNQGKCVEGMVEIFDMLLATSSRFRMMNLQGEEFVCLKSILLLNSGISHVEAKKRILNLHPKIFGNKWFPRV
Experimental: The binding specificity of SNGmB1 was assessed using ELISA assay. Five different proteins were used to coat the assay plate at 1 μg/ml. After extensive blocking, the SNGmB1 antibody of different concentrations (10, 2, 0.4, 0.08 and 0.016, 0.004 μg/ml) was added to the assay plate and incubated for 1.5 hours, followed by detection of complex formation using HRP (horse radish peroxidase) labeled anti-mouse IgG Fc (Invitrogen). An example of the data was shown below in FIG. 3. […] The key epitope residues in ER-α36 F domain for SNGmB1 binding have been mapped using both PepScan and Alanine Scan (see Example 5).

[2] = test system: MCF7 mammosphere formation; test: Estradiol stimulated MCF7 mammosphere formation assay; format: cell-based, human
Experimental: The impact of antibody on the formation and growth of cells was evaluated by Estradiol stimulated MCF7 mammosphere formation assay.
MCF-7 (ATCC) maintained in DMEM medium containing 10% FBS (Gibco) have been passaged 2-3 times prior to assay and are 60% confluence. MCF-7 cells were washed with warm phenol red-free DMEM twice and then grew in phenol red-free DMEM with 2.5% charcoal stripped FBS (CFBS) for 48 hours. The cells were then trypsinized and passed through 40-μm filters to remove cell clumps, followed by stained with 7-AAD and 800 cells were plated into each well of ultra-low binding 24 well plates (Corning Inc.) in 800 μl mammosphere growth medium consisting of serum free DMEM-F12 (Gibco) supplemented with 5 μg/ml insulin, 0.4% bovine serum albumin (Sigma), B27 (Invitrogen), 20 ng/ml EGF and bFGF (BDBiosciences). For the evaluation of antibody activity, 1 nM estradiol in DMSO was added to each well to induce mammosphere formation after adding of antibodies.
MCF7 cells were grown in the presence of 1 nM estradiol and PBS, human IgG, mouse IgG2b, recombinant ER-α36 ligand binding domain Fc fusion protein, or SNGmB1. DMSO was used as negative control. After 72 hr treatment, the number of mammosphere in culture was counted. […]
The antibody activity was also evaluated in a longer term of 7 days by following methods: MCF7 mammosphere was prepared using same method described above. […]

[3] = test system: 4T1-ER-α36 positive cells; test: 4T1-ER-α36 lung tumor metastasis model; format: in vivo, nude mice
Experimental: FACS-sorted 4T1-ER-α36 positive cells (ATCC) (5*10^4) were injected in the nude mice via tail vein. Average 20 mg/kg body SNGmB1 or control IgG (20 mg/kg body weight) was administered by tail vein injection every 3 or 4 days for 18 days, and tamoxifen (1 mg/kg body weight) was intragastric administrated synchronously. […] Representative immunohistochemical images showing ALDH1 in lung metastatic foci with tamoxifen administrated tumor-bearing nude mice respectively after control IgG and SNGmB1 antibody treatment. Hematoxylin was used for counterstaining. Seen from FIG. 26a and FIG. 26b, it is illustrated that ALDH1 is decreased after SNGmB1 injection. scale bars 50 μm.

- binding to Fc-LBD protein (ER-α36): bind to
B1: SNGmB1: mouse monoclonal anti-ER-α36 antibody (mIgG2b), light chain SEQ ID NO: 16, heavy chain SEQ ID NO: 18 (antibody, listed as Mus musculus)
heavy: QAYLQQSGAELVRPGASVKMSCKASGYTFTSHNMHWIKQTPRQGLEWIGAIHPVNGDTAYNQKFKGKATLTVDKSSSTAYLQLSSLTSEESAVYFCAREGYGSVDYWGQGTTLTVSSAKTTPPSVYPLAPGCGDTTGSSVTLGCLVKGYFPESVTVTWNSGSLSSSVHTFPALLQSGLYTMSSSVTVPSSTWPSQTVTCSVAHPASSTTVDKKLEPSGPISTINPCPPCKECHKCPAPNLEGGPSVFIFPPNIKDVLMISLTPKVTCVVVDVSEDDPDVQISWFVNNVEVHTAQTQTHREDYNSTIRVVSTLPIQHQDWMSGKEFKCKVNNKDLPSPIERTISKIKGLVRAPQVYILPPPAEQLSRKDVSLTCLVVGFNPGDISVEWTSNGHTEENYKDTAPVLDSDGSYFIYSKLNMKTSKWEKTDSFSCNVRHEGLKNYYLKKTISRSPGK
light: ETTVTQSPASLSMTIGEKVTIRCITSTDIDDDMNWYRKKPGQPPKLLISEGNTLRPGVPSRFSSSGYGTDFVFTIENMLSEDVADYYCLQSDNLPLTFGAGTKLELKRADAAPTVSIFPPSSEQLTSGGASVVCFLNNFYPKDINVKWKIDGSERQNGVLNSWTDQDSKDSTYSMSSTLTLTKDEYERHNSYTCEATHKTSTSPIVKSFNRNEC
- detection of ER-α36 protein expression in human tumor tissues [1]: detected both membrane bound and cytoplasmic expression
- inhibition of estradiol stimulated MCF7 mammosphere formation ([2]; 1 nM estradiol, 72 hr treatment, compared with human IgG and mouse IgG2b): significantly inhibited; also recorded: can inhibit on MCF7 mammosphere formation and growth
- inhibition of MCF7 mammosphere formation, longer term ([2]; 7 days, estradiol 100 μM or 3 nM, different antibody concentrations, compared with mIgG): better ability in inhibiting mammosphere formation compared with mIgG; also recorded: can inhibit on MCF7 mammosphere formation and growth at different concentrations
- metastasis of lung tumor ([3]; nude mice, 20 mg/kg by tail vein every 3 or 4 days for 18 days, with tamoxifen 1 mg/kg): prevents the metastasis of lung tumor
- ALDH1 in lung metastatic foci (immunohistochemistry) ([3]; tamoxifen administrated tumor-bearing nude mice, versus control IgG): decreased
